# Assay results as given in IntAct's records for PubMed 12502741.
# B1: Retinoblastoma-associated protein (Homo sapiens), P06400 (parent)
# chain: MPPKTPRKTAATAAAAAAEPPAPPPPPPPEEDPEQDSGPEDLPLVRLEFEETEEPDFTALCQKLKIPDHVRERAWLTWEKVSSVDGVLGGYIQKKKELWGICIFIAAVDLDEMSFTFTELQKNIEISVHKFFNLLKEIDTSTKVDNAMSRLLKKYDVLFALFSKLERTCELIYLTQPSSSISTEINSALVLKVSWITFLLAKGEVLQMEDDLVISFQLMLCVLDYFIKLSPPMLLKEPYKTAVIPINGSPRTPRRGQNRSARIAKQLENDTRIIEVLCKEHECNIDEVKNVYFKNFIPFMNSLGLVTSNGLPEVENLSKRYEEIYLKNKDLDARLFLDHDKTLQTDSIDSFETQRTPRKSNLDEEVNVIPPHTPVRTVMNTIQQLMMILNSASDQPSENLISYFNNCTVNPKESILKRVKDIGYIFKEKFAKAVGQGCVEIGSQRYKLGVRLYYRVMESMLKSEEERLSIQNFSKLLNDNIFHMSLLACALEVVMATYSRSTSQNLDSGTDLSFPWILNVLNLKAFDFYKVIESFIKAEGNLTREMIKHLERCEHRIMESLAWLSDSPLFDLIKQSKDREGPTDHLESACPLNLPLQNNHTAADMYLSPVRSPKKKGSTTRVNSTANAETQATSAFQTQKPLKSTSLSLFYKKVYRLAYLRLNTLCERLLSEHPELEHIIWTLFQHTLQNEYELMRDRHLDQIMMCSMYGICKVKNIDLKFKIIVTAYKDLPHAVQETFKRVLIKEEEYDSIIVFYNSVFMQRLKTNILQYASTRPPTLSPIPHIPRSPYKFPSSPLRIPGGNIYISPLKSPYKISEGLPTPTKMTPRSRILVSIGESFGTSEKFQKINQMVCNSDRVLKRSAEGSNPPKPLKKLRFDIEGSDEADGSKHLPGESKFQQKLAEMTSTRTRMQKQKMNDSMDTSNKEEK
# Variants of: B1
# Details: with e2f1_human E2F1, Q01094
# e2f1_human E2F1, Q01094, sequence (Q01094 whole entry): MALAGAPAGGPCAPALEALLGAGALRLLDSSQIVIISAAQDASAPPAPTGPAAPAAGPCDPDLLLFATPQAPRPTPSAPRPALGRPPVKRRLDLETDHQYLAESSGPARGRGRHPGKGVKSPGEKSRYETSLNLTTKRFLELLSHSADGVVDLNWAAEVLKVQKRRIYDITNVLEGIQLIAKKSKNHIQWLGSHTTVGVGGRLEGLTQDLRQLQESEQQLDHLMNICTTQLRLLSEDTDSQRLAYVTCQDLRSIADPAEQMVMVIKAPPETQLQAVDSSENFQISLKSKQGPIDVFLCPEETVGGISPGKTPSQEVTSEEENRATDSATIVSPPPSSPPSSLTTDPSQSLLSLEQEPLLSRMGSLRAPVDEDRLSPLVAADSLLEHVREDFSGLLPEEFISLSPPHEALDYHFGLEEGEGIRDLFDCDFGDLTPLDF
row,Variant,effect of a mutation on the interaction
1,F482A,decreasing interaction strength
2,R467A,decreasing interaction strength

# Further lines, results first:
row,effect of a mutation on the interaction,Variant
1,decreasing interaction strength,E554A
2,decreasing interaction strength,K653A
